Data on one substance can be found in publication PMC4210868.

The assay addresses DDAGNRQP-fused pVIII protein (phage fd (fd-tet)) (UniProt P69539). Put plainly: tricine-SDS-PAGE.

In general, stoichiometry N refers to the number of molecules, sites or subunits per partner or assembly. As to “DDAGNRQP-fused pVIII protein (from UniProt P69539 24-73)”, the stoichiometry N was 2.
